Measured values taken from patent EP4785962A1, “ANTIBODY-DRUG CONJUGATE TARGETING TROP2, AND PREPARATION METHOD AND USE THEREFOR” (priority 2023, dated 2025).

Columns and labels:
[1] = once every three weeks for a total of 3 times; WO2020240467A1; cited from earlier work
[2] = ADC in vivo stability assay in mice (serum ELISA for ADC and total antibody); design: species or system Balb/c mice; conditions: 10 mg/kg via the tail vein
Experimental: • 1. The antibody-drug conjugate was injected into Balb/c mice (Vital River) via the tail vein at a dose of 10 mg/kg, and blood was collected at 0.083 h, 0.5 h, 2 h, 6 h, 24 h, 48 h, 96 h, 168 h, 336 h, and 504 h after administration (FIG. 10A). The blood samples were left to stand at room temperature and centrifuged to collect serum, so as to test the stability of the drug in the mice. • 2. Antibody detection: TROP2 protein (ACRO, cat: TR2-H5223, lot: 2573-2316F1-1B9) was coated and incubated overnight at 4 °C (FIG. 10A). The coating protein solution was removed, and 300 µL of wash buffer (0.05% Tween 20) was added to each well for repeated washing 3 times. 200 µL of blocking solution (5% skim milk powder) was added to each well, and the plate was blocked at room temperature for 2 h. The blocking solution was discarded, and the plate was washed 3 times with 300 µL of wash buffer per well. The diluted standards, quality control samples, and mouse serum samples to be tested were added to the well plate and incubated at room temperature for 2 h. The sample solution was discarded, and 300 µL of wash buffer was added to each well for 3 times of repeated washing. Anti-hFc-HRP (BETHYL, cat:A80-104P, lot: 97) was diluted 20000-fold and added at 100 µL/well, and the plate was incubated at room temperature for 1 h. The liquid was removed, and 300 µL of wash buffer was added to each well for 6 times of repeated washing. 100 µL of TMB substrate (Solarbio, cat:PR1200, lot: 20230418) was added to each well, and the color development was performed at room temperature for 5-10 min in the dark. 50 µL of ELISA stop solution (Beijing Solarbio C1058 20190620) was added to each well, medium-speed shaking for 10 s, within 30 min, the OD values at 450 nm and 620 nm were read on a microplate reader (USA, Thermo Multiskan FC AS-A1-008). • 3. Antibody-drug conjugate ADC detection: an anti-payload antibody 18E7C9 (innovent, lot: 20220424) was coated and incubated at 4 °C overnight (FIG. 10A). The coating protein solution was discarded, and 300 µL of wash buffer (0.05% Tween 20) was added to each well for 3 repeated washes. 200 µL of blocking solution (5% skim milk powder) was added to each well, and the plate was blocked at room temperature for 2 h. The blocking solution was discarded, and the plate was washed 3 times with 300 µL of wash buffer per well. The diluted standards, quality control samples, and mouse serum samples to be tested were added to the well plate and incubated at room temperature for 2 h. The sample solution was discarded, and 300 µL of wash buffer was added to each well for 3 times of repeated washing. Biotinylated TROP2 protein (ACRO, cat: TR2-H82E5, lot:BV3055-91PF1-ZC) was added to the microplate and incubated at room temperature for 2 h. The liquid was removed, and 300 µL of wash buffer was added to each well for 3 times of repeated washing. SA-HRP (Biolegend, cat:405210, lot: B339457) was diluted 20,000-fold and added at 100 µL/well, and the plate was incubated at room temperature for 1 h. The liquid was removed, and 300 µL of wash buffer was added to each well for 6 times of repeated washing. 100 µL of TMB substrate (Solarbio, cat:PR1200, lot: 20230418) was added to each well, and the color development was performed at room temperature for 5-10 min in the dark. 50 µL of ELISA stop solution (Beijing Solarbio C1058 20190620) was added to each well, medium-speed shaking for 10 s, within 30 min, the OD values at 450 nm and 620 nm were read on a microplate reader (USA, Thermo Multiskan FC AS-A1-008).

B1: hTINA1-DXd: control ADC: antibody hTINA1 conjugated with Linker-DXd, average DAR 4.3; TROP2-ADC from Daiichi Sankyo (conjugate, chains of the INN, looked up)
VH: QVQLVQSGAEVKKPGASVKVSCKASGYTFTTAGMQWVRQAPGQGLEWMGWINTHSGVPKYAEDFKGRVTISADTSTSTAYLQLSSLKSEDTAVYYCARSGFGSSYWYFDVWGQGTLVTVSS
VL: DIQMTQSPSSLSASVGDRVTITCKASQDVSTAVAWYQQKPGKAPKLLIYSASYRYTGVPSRFSGSGSGTDFTLTISSLQPEDFAVYYCQQHYITPLTFGQGTKLEIK
modifications: deruxtecan (Linker-DXd), DAR 4.3
notes: control ADC: antibody hTINA1 conjugated with Linker-DXd, average DAR 4.3; TROP2-ADC from Daiichi Sankyo
**Q.** What does the source list for B1?
**A.** HNSTD [1]: 30 mg/kg; AUC ([2]; Analysis Type ADC): 12053.60 µg·h/mL; Cl_obs ([2]; Analysis Type ADC): 19.9 mL/day/kg; T-half ([2]; Analysis Type ADC): 154.59 h; AUC ([2]; Analysis Type Total-Ab): 35805.22 µg·h/mL; Cl_obs ([2]; Analysis Type Total-Ab): 6.72 mL/day/kg; T-half ([2]; Analysis Type Total-Ab): 374.37 h
